Our source for the Kd and IC50 values is the Immune Epitope Database (IEDB).

Experiment [1] addresses HLA-B*44:02. The experiment in a line: IEDB peptide-MHC binding, purified MHC/competitive/radioactivity; filed as Kd, often an IC50 or EC50 that approximates it; ≥ and ≤ were set here for values at or beyond the usual limits of such assays.
Experiment [2] concerns the target HLA-B*44:03. Described as above.
In experiment [3] the target is HLA-B*40:01. The description is as above.
Experiment [4] deals with HLA-B*18:01. The experiment is described as above.
The target of experiment [5] is HLA-B*40:02. The experiment is described as above.
Experiment [6] addresses HLA-B*45:01. Described as above.
Experiment [7] addresses HLA-A*03:01. The experiment in a line: IEDB peptide-MHC binding, purified MHC/competitive/fluorescence; filed as Kd, often an IC50 or EC50 that approximates it; ≥ and ≤ were set here for values at or beyond the usual limits of such assays.
The target in experiment [8] is HLA-A*11:01. The experiment in a line: IEDB peptide-MHC binding, purified MHC/competitive/fluorescence; ≥ and ≤ were set here for values at or beyond the usual limits of such assays. As to conditions: source organism: Sudan ebolavirus.
Experiment [9] addresses HLA-A*02:01. The experiment is described as above. As to conditions: source organism: Sudan ebolavirus.
Experiment [10] addresses HLA-A*24:02. The description is as above. As to conditions: source organism: Sudan ebolavirus.
The target in experiment [11] is HLA-B*46:01. The experiment in a line: IEDB peptide-MHC binding, purified MHC/competitive/fluorescence; filed as Kd, often an IC50 or EC50 that approximates it; ≥ and ≤ were set here for values at or beyond the usual limits of such assays. As to conditions: source organism: Choclo virus.
Experiment [12] has as its target HLA-B*27:03. Described as above. As to conditions: source organism: Choclo virus.
The target in experiment [13] is HLA-B*51:01. The description is as above. Particulars: source organism: Choclo virus.
Experiment [14] deals with HLA-B*15:01. The description is as above.
The target of experiment [15] is HLA-B*15:17. Described as above. Particulars: source organism: Choclo virus.
Experiment [16] has as its target HLA-B*18:01. The description is as above. As to conditions: source organism: Choclo virus.
In experiment [17] the target is HLA-B*57:01. The experiment is described as above. As to conditions: source organism: Choclo virus.
Experiment [18] addresses HLA-B*39:01. The experiment is described as above. As to conditions: source organism: Choclo virus.
Experiment [19] deals with HLA-A*26:01. The description is as above. As to conditions: source organism: Choclo virus.
The target of experiment [20] is HLA-B*58:01. In words: IEDB peptide-MHC binding, purified MHC/direct/fluorescence; filed as Kd, often an IC50 or EC50 that approximates it; ≥ and ≤ were set here for values at or beyond the usual limits of such assays. Particulars: source organism: Orthohantavirus andesense.
The target in experiment [21] is HLA-A*03:01. The experiment is described as above. Particulars: source organism: Choclo virus.
The target of experiment [22] is HLA-A*02:12. Described as above.
Experiment [23] deals with HLA-A*69:01. The experiment is described as above. Particulars: source organism: Mycobacterium tuberculosis.
For experiment [24], the target named is HLA-A*02:03. Described as above. Particulars: source organism: Mycobacterium tuberculosis str. Haarlem.
For experiment [25], the target named is HLA-A*02:11. The description is as above.
Experiment [26] has as its target HLA-A*01:01. Described as above. As to conditions: source organism: SARS-CoV1.
Experiment [27] deals with HLA-A*30:02. In words: IEDB peptide-MHC binding, purified MHC/competitive/radioactivity; filed as Kd, often an IC50 or EC50 that approximates it; ≥ and ≤ were set here for values at or beyond the usual limits of such assays. As to conditions: source organism: SARS coronavirus Tor2.
In experiment [28] the target is HLA-A*23:01. The description is as above. As to conditions: source organism: SARS coronavirus Tor2.
Experiment [29] has as its target HLA-A*24:02. The experiment is described as above. As to conditions: source organism: SARS coronavirus Tor2.
For experiment [30], the target named is HLA-A*29:02. Described as above. Particulars: source organism: SARS coronavirus Tor2.
In experiment [31] the target is HLA-A*26:01. Described as above. Particulars: source organism: SARS coronavirus Tor2.
The mark [32] stands for this setting: source organism: Lymphocytic choriomeningitis virus (strain Armstrong).
[33] abbreviates: source organism: Mammarenavirus lassaense.
The mark [34] stands for this setting: source organism: SARS coronavirus Tor2.
Setting [35] is: source organism: Mammarenavirus brazilense.
The mark [36] stands for this setting: source organism: Mammarenavirus machupoense.
Setting [37] is: source organism: Mammarenavirus juninense.
[38] abbreviates: source organism: Mycobacterium tuberculosis str. Haarlem.
Setting [39] is: source organism: Yersinia pestis Antiqua.

As usually defined, the Kd is the free concentration of one partner at which half of the binding sites on the other are occupied at equilibrium, for simple one-to-one binding. Regarding AEALGPFQS, the Kd in experiment [1] (setting [32]) was 1.32 µM; in experiment [2] (setting [32]), 6.97 µM; in experiment [3] (setting [32]), not below 32.1 µM; in [4] (setting [32]), not below 77.5 µM; in [5] (setting [32]), 4.96 µM; in experiment [6] (setting [32]), 0.132 µM.
As to FESYVRPFVA, the Kd in experiment [1] (setting [33]) is not below 70.2 µM; in experiment [2] (setting [33]), not below 32 µM; in experiment [3] (setting [33]), 5.42 µM; in [4] (setting [33]), 0.982 µM; in experiment [5] (setting [33]), 0.0199 µM; in experiment [6] (setting [33]), 0.151 µM.
Consider FEKMVSLLSV, for which the Kd in experiment [1] (setting [34]) stood at 3.28 µM; in [2] (setting [34]), 6.18 µM; in [3] (setting [34]) it was 0.0252 µM; in [4] (setting [34]) it was 0.145 µM; in experiment [5] (setting [34]), 0.0237 µM; in [6] (setting [34]), 0.784 µM.
Turning to SEAPNAKEEI, the Kd in experiment [1] (setting [34]) was 0.105 µM; in experiment [2] (setting [34]) it was 0.145 µM; in [3] (setting [34]), 1.18 µM; in experiment [4] (setting [34]), not below 27.2 µM; in [5] (setting [34]), 3.35 µM; in experiment [6] (setting [34]), 0.319 µM.
On to FEEHLAPFMS, for which the Kd in experiment [1] (setting [35]) was not below 47.4 µM; in experiment [2] (setting [35]) it was not below 70.1 µM; in experiment [3] (setting [35]), 2.36 µM; in experiment [4] (setting [35]) it was 3.38 µM; in experiment [5] (setting [35]), 2.57 µM; in experiment [6] (setting [35]), 8.78 µM.
As for GERSRCYSL, the Kd in experiment [1] (setting [35]) was not below 77.9 µM; in experiment [2] (setting [35]) it was not below 78.1 µM; in experiment [3] (setting [35]), 3.38 µM; in experiment [4] (setting [35]) it was not below 77.5 µM; in [5] (setting [35]), 0.0512 µM; in experiment [6] (setting [35]) it was not below 77.7 µM.
On to FDAAASGGL, for which the Kd in experiment [1] (setting [33]) was not below 77.9 µM; in [2] (setting [33]), not below 78.1 µM; in experiment [3] (setting [33]) it was not below 28.5 µM; in experiment [4] (setting [33]) it was not below 65.2 µM; in [5] (setting [33]) it was 3.02 µM; in experiment [6] (setting [33]) it was not below 32.2 µM.
RCYPGYTLK had a Kd in experiment [7] (source organism: Giardia lamblia ATCC 50803) of 0.0623 µM.
In the case of YDFNKLTAL, the Kd in experiment [1] (setting [33]) was 2.27 µM; in experiment [2] (setting [33]) it was 9.17 µM; in experiment [3] (setting [33]), 5.34 µM; in [4] (setting [33]), 6.78 µM; in experiment [5] (setting [33]) it was 0.0198 µM; in experiment [6] (setting [33]), not below 77.7 µM.
On to GDVELLGTT, for which the Kd in [1] (setting [33]) was not below 41.8 µM; in experiment [2] (setting [33]), not below 52.1 µM; in [3] (setting [33]), not below 33.7 µM; in [4] (setting [33]), not below 77.5 µM; in experiment [5] (setting [33]) it was 5.92 µM; in experiment [6] (setting [33]), 16.6 µM.
As for SEAQMSIQL, the Kd turned out to be 0.161 µM in experiment [1] (setting [33]); 0.0993 µM in experiment [2] (setting [33]); 11.6 µM in [3] (setting [33]); 1.1 µM in [4] (setting [33]); 0.0153 µM in [5] (setting [33]); 0.542 µM in [6] (setting [33]).
On to YMFESKRMK, for which the Kd in experiment [7] (source organism: Influenza A virus (A/swine/Finistere/127/99(H3N2))) was determined as 0.0194 µM.
Consider ADMSKLLNL, for which the Kd in experiment [1] (setting [36]) was 5.44 µM; in experiment [2] (setting [36]) it was not below 51.4 µM; in experiment [3] (setting [36]), 6.25 µM; in [4] (setting [36]), not below 77.5 µM; in experiment [5] (setting [36]) it was 0.339 µM; in experiment [6] (setting [36]), not below 77.7 µM.
For the sequence QELYSPLFLI, the Kd in experiment [1] (setting [34]) was 0.00701 µM; in [2] (setting [34]), 0.00736 µM; in experiment [3] (setting [34]) it was 0.69 µM; in [4] (setting [34]) it was 4.91 µM; in [5] (setting [34]), 0.0107 µM; in experiment [6] (setting [34]) it was 0.0456 µM.
For the sequence SEILRTLGF, the Kd came out at 0.0187 µM in experiment [1] (setting [37]); 0.0373 µM in experiment [2] (setting [37]); 4.18 µM in [3] (setting [37]); 0.115 µM in [4] (setting [37]); 0.0561 µM in experiment [5] (setting [37]); 7.59 µM in experiment [6] (setting [37]).
For the sequence FELTSMKYFV, the Kd in experiment [1] (setting [34]) is 7.16 µM; in experiment [2] (setting [34]), 4.47 µM; in experiment [3] (setting [34]), 2.14 µM; in experiment [4] (setting [34]), not below 37.9 µM; in experiment [5] (setting [34]), 0.0242 µM; in [6] (setting [34]) it was 7.78 µM.
Regarding CLRIPMTDK, the Kd in [7] (source organism: Bacillus thuringiensis str. Al Hakam) turned out to be 0.0529 µM.
As to VLRRGALAH, the equilibrium dissociation constant (Kd) in experiment [7] (source organism: Vibrio cholerae 2740-80) was 0.014 µM.
In general, IC50 refers to the concentration that inhibits the measured activity by half. Lower therefore signals inhibition by little substance. As for EWAFWENKK, the figures for the IC50 in [8], in [9] and in experiment [10] were 10.8 µM, not below 183 µM and 15.3 µM, respectively.
Regarding VMGVIGFGF, the Kd in experiment [11], in experiment [12], in experiment [13], in experiment [14] (source organism: Choclo virus), in experiment [15] and in experiment [16] was not below 20 µM each time. Further, the Kd was not below 20 µM in [17]; not below 20 µM in [18]; not below 20 µM in experiment [19]; 2.19 µM in experiment [20]; not below 20 µM in experiment [21]; not below 20 µM in experiment [22] (source organism: Choclo virus).
Take LLYDGSFAV: the Kd was 0.0043 µM in [23], not above 0.001 µM in experiment [24], not above 0.001 µM in experiment [25] (setting [38]) and 0.002 µM in [22] (setting [38]).
In the case of PVDEYITTY, the Kd in [25] (source organism: SARS-CoV1) was not below 20 µM; in experiment [26], 0.044 µM; in experiment [27] it was 1.48 µM; in experiment [28] it was not below 77.8 µM; in experiment [29], not below 77.6 µM; in [30] it was 0.544 µM. The Kd in [31] came to 10.8 µM.
AMLDRILHH: the Kd came out at 6.16 µM in experiment [14] (setting [39]) and 0.0095 µM in experiment [7] (setting [39]).
